Experiment: yeast display, Sf9 membrane polyspecificity reagent, FACS + sequencing; frameworks hold sequencing errors
Procedure, shortened: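 Genes from sorted yeast were amplified by colony PCR, read by MiSeq 2 × 250 sequencing and filtered on CDR length. These cells carried a synthetic nanobody library in Saccharomyces cerevisiae BJ5465 and were sorted by FACS into low and high (top ~1%) gates on anti-HA and streptavidin fluorescence. Polyreactivity is labelled according to the gate of origin.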

Sequence	polyreactivity (PSR sort gate)
QVQLVESGGGLVQAGGSLRLSCAASRSIFQSYDMGWYRQAPGKERELVAAISWSGSTTYYADSVKGRFTISRDNAKNTVYLQMNSLKPEDTAVYYCAFDSNTPDWWAVIYGYWGQGTQVTVSS	low polyreactivity
QVQLVESGGGLVQAGGSLRLSCAASRSIFVRNAMGWYRPAPGKERELVAAITSDVNTYYADSVKGRFTISRDNAKNTVYLQMNSLKPEDTAVYYCAKGVTSQPNDPAPFPRYEYWGQGTQVTVSS	low polyreactivity
QVQLVESGGGLVQAGGSLRLSCAASRSTFRDNAMGWYRQAPGKVRELVAGITRGGITNYADSVKGRYTISRDNAKNTVYLQMNSLKPEDTEVYYFAAEVTGTYYDYDYWGQGTQVTVSS	low polyreactivity
QVQLVESGGGLVQAGGSLRLSCAASTYLRLLMLWDGIDLRLGKKGSWLTLLTLVVNSTYYADSVKGRFTISRDNAKNTVFLQMNSLKPEDTAVYYCNVDPYGTYARTHLEYWGQGTQVTVSS	low polyreactivity
QVQLVESGGGLVQAGGSLRLSCAASVFIFPHYTMGWYRQAPGKERELVAAISSSGGSTYYADSVKGRFTISRYNAKNTVYLQMNSLKPEDSADYYCPGPLPYYGQYDYWGQGTQVTVSS	low polyreactivity
QVQLVESGGGLVQAGGSLRLSCAASVFTFAPNAMGWYRQAPGKERELVAVIDSGGSTNYADSVKGRFTISRDNAKNTVYLQMNSLKPEDTAVYYCATDVPLDYYWLWDDYWGQGTQVTVSS	low polyreactivity
QVQLVESGGGLVQAGGSLRLSCAASVFTFNDYAMGWYRQAPGKERELVAAIDWSGGRTYYADSVKGRFTISRDNAKNTVYLQMNSLKPEDTAVYYCAAVLYSRLYWYRLDYWGQGTQVTVSS	low polyreactivity
QVQLVESGGGLVQAGGSLRLSCAASVFTFTKYAMGWYRQAPGKERELVAAITRRGGRTYYADSVKGRFTISRDNAKNTVYLQMNSLKPEDTAVYYFNADIIWGSVSNGSEYDYWGQGTQVTVSS	high polyreactivity
QVQLVESGGGLVQAGGSLRLSCAASVFTSLIYAMGWYRPAPGKERELVATLTWGGGSTYADSVKGRLTISRDNAQNTVYLQMNSLKPVDTAVYDCKADIYDSWVYATVYSDRYDYWGQGTQVTVSS	low polyreactivity
QVQLVESGGGLVQAGGSLRLSCAASVFYPYAMGWYRQAPGKERELVAAISWSGGRTYYADSVKGRFTISRDNAKNTVYLQMNSLKPEDTAVYYCNKVYSSYRVYDFNYWGQGTQVTVSS	high polyreactivity
QVQLVESGGGLVQAGGSLRLSCAASVIICPDNAMGWDRPAPGKERELVAAITQSRGSTFYADSVKGRFTISRDNAKNTVYLQMKSLKPEDTAVYYCNAYRKFRYWGQGTQVTVSS	high polyreactivity
QVQLVESGGGLVQAGGSLRLSCAASVISFARNVMGWYRQATGKERELVAGISRRGGSTYYADSVKGRFTISRDNAKNTVYLQMNSLKPEDTAVYYCAAEYIRNGDYGLDYWGQGTQVTVSS	high polyreactivity
QVQLVESGGGLVQAGGSLRLSCAASVITFVFYAMGWYRQAPGKEREFVAGITWRGGRTYYADSVKGRFTISRDNAKNTVYLQMNSLKPEDTAVYYCNARSVVLTGGDYWGQGTQVTVSS	high polyreactivity
QVQLVESGGGLVQAGGSLRLSCAASVITVRSYAMGWYRQAPGKERELVARISTDADTYYADSVKGRFTISRDNAKITVYLHMNSLKPEDTAVYYCAAEDYWDFDYWGQGTQVTVSS	low polyreactivity
QVQLVESGGGLVQAGGSLRLSCAASVITYFVYAMGWYRQAPGKERELVAAITSGDSTSYADSVKGRFTISRDNAKNTVYLQMNSLKPEDTAVYYCAAEQVTIEDGVYFDFNSWGQGTQVTVSS	low polyreactivity
QVQLVESGGGLVQAGGSLRLSCAASVKIFAWYALGWYRKAPGKEMELVADISSRGGSTYYADSVKGRFTISRDNAKNTVYLQMNSLKPEDTAVYYCAAVWYWTQDYDYWGQGTQVTGSS	low polyreactivity
QVQLVESGGGLVQAGGSLRLSCAASVLTFVDYAMGWYRQAPGKERELVAAITSSGGSITYYADSVKGRFTISRDNAKNTVYLQMNSLKPEDTAVYYCNADYGIYTDSFRGQDYESWGQGTQVTVSS	low polyreactivity
QVQLVESGGGLVQAGGSLRLSCAASVNIFQSYTMGWYRQAPGKERELVARITARGGRTYYADSVQGRFTISRDNANNTVYLQMNSLKPEDTAFYYCAAQHRGPYGVDYWGQGTQVTVSS	high polyreactivity
QVQLVESGGGLVQAGGSLRLSCAASVNIFSFYAMGWNRQAPGKERELVAAIIWSGGDTYYADSVKGRFTISLDNAKNTVYLQMNSLKPEDTAVYYCAAEYYYQYYPGGYDYWGQGSQVTVSS	high polyreactivity
QVQLVESGGGLVQAGGSLRLSCAASVRIFGYYAMGWNRQAPGTERELVATINSVGSTNYADSVKGRFTISRDNAKNTVYLQMNSLKPEDTAVYYCATDSAYTFFTYRLWRHGYWGQGTQVTVSS	low polyreactivity

Sequence	polyreactivity (PSR sort gate)
QVQLVESGGGLVQAGGSLRLSCAASVRIFPIYAMGWYRQAPGKERELVAAIDSGGSTTYADSVKGRFTISRDNAKNTVYLQMNSLKPEDTAVYYCSAKGAYPYWYPVAYRYDYWGQGTQVTVSS	low polyreactivity
QVQLVESGGGLVQAGGSLRLSCAASVRIFSGYAMGWYRQAPGKERELVAAISQRGGSTTYADSVKGRFTISRDNAKNTVYLQMNSLKPEDTAVYYCAKRYTYPSGYDYWGQGTQVTVSS	low polyreactivity
QVQLVESGGGLVQAGGSLRLSCAASVRIFVYYAMGWYRQAPGKERELVASISYSGASTYYADSVKGRFTISRDNAKKTVYLQMNSLKPEDTAVYYCNTDGDDFFHVIYDYWGQGTQVTVSS	low polyreactivity
QVQLVESGGGLVQAGGSLRLSCAASVRIYGSNVMGWYRQAPGKERELVASISSGGTTYYADSVKGRFTISRDNAKNTVYLQMNSLKPEDTAVYYCAKQWTRIYQYRWYPGTRTGYDYWGQGTQVTVSS	high polyreactivity
QVQLVESGGGLVQAGGSLRLSCAASVRTFYRYAMGGYRQAPGKERELDAGISWRGGSTYYADSVKGRFTISRDNAKNTVYLQMNSLKPEDTAVYYCNAVTTPARTRLFKTVPYEYWGQGTQVTVSS	high polyreactivity
QVQLVESGGGLVQAGGSLRLSCAASVRTFYYYAMGWYRQAPGKERELVAAIRWSTGSTYYADSVKGRFTISRDNAQNTVYLQMNSLKPEDTAVYYCAADTWYIQWGYYWGQGTQVTVSS	low polyreactivity
QVQLVESGGGLVQAGGSLRLSCAASVRTMRTYTMGWYRQAPGIERELVAAISSSDDSTYYADSVKGRFTISRDNEKNTVYLQMNSLKPEDTAVYYCAKDGLYPTEYGYWGQGTQVTVSS	high polyreactivity
QVQLVESGGGLVQAGGSLRLSCAASVRTSSKYALGWYRQAPGKERELVAGISASGTRTYYADSVKGRFTISRDNAKNTVYLQMNSLKPEDTAVYYCATSFFWYYYWGQGTQVTVSS	high polyreactivity
QVQLVESGGGLVQAGGSLRLSCAASVRTVDSYTMGWYRQAPGKERELVAAIRSSGGRTYADSVKGRFTISRDNAKNTVYLQMNSLKPEDTAVYYCAAARSYWAKYYYWGQGTQVTVSS	high polyreactivity
QVQLVESGGGLVQAGGSLRLSCAASVSIFETYAMGWSRQAPGKERELDAAISSSGGTTYYADSVKGRFTISRDTAKNTVYLQMNSLKPEDTAVYYCAARSAATHWTFLFYYDFDYWGQGTQVTVSS	low polyreactivity
QVQLVESGGGLVQAGGSLRLSCAASVSIFFSYAMGWYRQAPGKERELVASITWSGDTTYYADSVKGRFTISRDNAKNTVYLQMNSLKPEDTAVYYCAAVNRGGYDYWGQGTQVTVSS	low polyreactivity
QVQLVESGGGLVQAGGSLRLSCAASVSIFGSNAMRWYRQAPGKERELVAVITNGGRTYYADSVKGRFTISRDNAKNTVFLQMNSLKPEDTAVYYCAASRVYGWYGSYSTYGSWGQGTQVTVSS	high polyreactivity
QVQLVESGGGLVQAGGSLRLSCAASVSIFGYNTMGRYRQAPGKERELVARIRASGGSTYYADSVKGRFTISRDNAKNTVYLQMNSLKPEDTAVYYCAKYLRGSWVRQFGSTYDYWGQGTQVTVSS	high polyreactivity
QVQLVESGGGLVQAGGSLRLSCAASVSIFISYAMGWYRQAPGKERELVAAISSGGSTNYADSVKGRFTISRDNAKNTVYLQMNSLKPEDTAVYYCAADGWLWSFTGDGWWFDDWGQGTQVTVSS	low polyreactivity
QVQLVESGGGLVQAGGSLRLSCAASVSIFRVNTMGWYRQAPGKERELVATISSGARTNYADSVKGRFSISRDNAKNTVYLQMNSLKPEDTAVYYCATRYRRVYTWYDYWGQGTQVTVSS	high polyreactivity
QVQLVESGGGLVQAGGSLRLSCAASVSIFTAYPRGWYRQAPGKERELVAAISNGGSTYYADSVKGRFTISRDNAKNTVYLQMNSLKQEDTAVYYCAADSVQFQPDDEYWGQGTQVTVSS	low polyreactivity
QVQLVESGGGLVQAGGSLRLSCAASVSIFWSYAMGWSRLAPGKERELVASISRSTGRTRYADSVKGRFTFSRDNAKNTVDLQMNSLKPEDTAVYYCNAEKRGQSYRFDYWGQGTQVTVSS	high polyreactivity
QVQLVESGGGLVQAGGSLRLSCAASVSIFYRNARGWYRQEPGKEREMVAAISSSVSSTYYADSVKGRFTISRDNAKNTVYLQMNSLKPEDTAVYYCAARRFQRGGDYFYRYLYDYWGQGTQVTVSS	low polyreactivity
QVQLVESGGGLVQAGGSLRLSCAASVSTFSTYAMGWYRQAPGKERELVAASTWRGSSTYYADSVKGRFTISRDNAKKTVYLQMNSLKPEDTAVYYCAAEDTFYEYYYWGQGTQVTVSS	high polyreactivity
QVQLVESGGGLVQAGGSLRLSCAASVSTFVGNAMGWYRQAPGKERELHAAISSGGSRTNYADSVKGRFTISRDNAKNTVYLQMNSLKPEDTAVYYCIAVFPRWQGSGRFAGGDYWGQGTQVTLSS	high polyreactivity

From the nanobody polyreactivity screen of Harvey et al. (2022)
